Test results: patent US11673947B2, “Target tissue-specific antigen-binding molecule” (Chugai Seiyaku Kabushiki Kaisha, priority 2012, dated 2023)
One block for each molecule: values may come before it.

Key:
human IL6 receptor = target: T1, human IL6 receptor (Homo sapiens, UniProt P08887); test: Phage ELISA, binding to human IL6 receptor in the presence or absence of adenosine and/or ATP; conditions: with or without 10 mM adenosine and ATP
T1 sequence (P08887 20-357 limits assumed): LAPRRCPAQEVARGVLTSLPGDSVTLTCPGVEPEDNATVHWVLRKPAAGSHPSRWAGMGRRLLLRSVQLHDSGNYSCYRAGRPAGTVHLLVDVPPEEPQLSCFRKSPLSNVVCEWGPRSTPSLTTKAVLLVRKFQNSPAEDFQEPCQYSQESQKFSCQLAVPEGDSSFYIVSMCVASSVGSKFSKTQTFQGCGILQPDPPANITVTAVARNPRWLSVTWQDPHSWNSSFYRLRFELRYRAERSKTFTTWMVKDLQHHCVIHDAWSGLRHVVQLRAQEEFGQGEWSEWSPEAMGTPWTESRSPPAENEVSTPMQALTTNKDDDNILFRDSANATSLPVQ
Procedure: Phage-containing culture supernatants were collected according to a conventional method (Methods Mol. Biol. (2002) 178, 133-145) from single colonies of E. coli obtained by the method described above. The collected culture supernatants were treated by ultrafiltration using NucleoFast 96 (MACHERY-NAGEL). 100 μl of the culture supernatants were added to each well of NucleoFast 96, and it was centrifuged (4500 g for 45 minutes) to remove flow through. After addition of 100 μl of H2O, the NucleoFast 96 was washed by centrifugation (4500 g for 30 minutes). Finally, 100 μl of TBS was added, and the NucleoFast 96 was allowed to stand for five minutes at room temperature. A phage suspension was collected from the supernatant in each well of the NucleoFast 96.
The purified phages, to which TBS or (adenosine+ATP)/TBS was added, were subjected to ELISA by the following procedure. A StreptaWell 96 microtiter plate (Roche) was coated overnight with 100 μl of TBS containing biotin-labeled antigen. […] Then, the developed color was assessed by measuring absorbance at 450 nm. […]
First, a StreptaWell 96 microtiter plate (Roche) was coated at room temperature for one hour or more with 100 μl of TBS containing a biotin-labeled antigen. […] Then, the developed color was assessed by measuring absorbance at 450 nm (FIGS. 25, 26, and 27). […]

[1] = Competitive phage ELISA, inhibition of binding to biotin-labeled antigens by ATP; conditions: ATP from an equal amount up to 10000 times that of the antigen
Procedure: ATNLSA1-4_D12 and PF1 were each diluted with TBS and subjected to ELISA by the following procedure.
A StreptaWell 96 microtiter plate (Roche) was coated at room temperature for one hour with 100 μl of TBS containing biotin-labeled antigens (a mixture of 5′-adenosine-PEG-biotin and ATP-PEG-biotin). After the antigens were removed by washing each well of the plate with TBST, the wells were blocked with 250 μl of 2% skim milk/TBS for one hour or more. 2% skim milk/TBS was removed, and then the prepared, purified phages were added to each well. The plate was allowed to stand at room temperature for one hour to allow binding of the antibody-displaying phages to the antigens in each well. […] For the competition of the immobilized antigen with ATP, the plate was allowed to stand at room temperature for one hour. Then, after TBST wash, an HRP-conjugated anti-M13 antibody (Amersham Pharmacia Biotech) diluted with TBS was added to each well. The plate was incubated for one hour. Following TBST wash, the TMB single solution (ZYMED) was added to each well. The chromogenic reaction in the solution of each well was terminated by adding sulfuric acid. Then, the developed color was assessed by measuring absorbance at 450 nm.

hIL-6R [2] = target: T2, hIL-6R (Homo sapiens, UniProt P08887); test: IgG ELISA, binding to hIL-6R in the presence or absence of each small molecule, amino acid or amino acid metabolite
T2 sequence (P08887 20-355 limits assumed): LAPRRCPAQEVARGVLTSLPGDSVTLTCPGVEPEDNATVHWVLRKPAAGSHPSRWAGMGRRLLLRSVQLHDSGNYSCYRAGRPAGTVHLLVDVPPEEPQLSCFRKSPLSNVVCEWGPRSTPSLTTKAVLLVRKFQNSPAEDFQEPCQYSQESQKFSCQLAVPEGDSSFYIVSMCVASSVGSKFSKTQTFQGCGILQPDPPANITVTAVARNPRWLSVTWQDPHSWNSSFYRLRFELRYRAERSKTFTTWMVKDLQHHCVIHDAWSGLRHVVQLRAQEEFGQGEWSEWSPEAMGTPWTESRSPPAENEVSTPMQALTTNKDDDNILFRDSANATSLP
Procedure: Three types of antibodies obtained: 6RNMSC1-2_F02 and 6RNMSC1-3_G02, and GC413 were subjected to ELISA under the nine conditions described in Table 3. Meanwhile, each small molecule was appropriately prepared at the concentrations shown in Table 3 using the buffers indicated in Table 19. The antigen used was biotin-labeled hIL-6R.
First, a StreptaWell 96 microtiter plate (Roche) was coated at room temperature for one hour or more with 100 μl of PBS containing biotin-labeled hIL-6R. After washing with Wash buffer to remove unbound biotin-labeled hIL-6R from the plate, each well was blocked for one hour or more with 250 μl of Blocking Buffer. After Blocking Buffer was removed from each well, the purified IgGs were prepared to 2.5 μg/ml in Sample Buffer containing small molecules at the final concentrations shown in Table 3, and each was aliquoted at 100 μl into the plate. The plate was allowed to stand at room temperature for one hour to allow binding of each IgG to biotin-labeled hIL-6R in each well. After washing with Wash Buffer containing small molecules at the final concentrations shown in Table 3, an HRP-conjugated anti-human IgG antibody (BIOSOURCE) diluted with Sample Buffer containing the same small molecules was added to each well. The plate was incubated for one hour. Following wash with Wash Buffer containing each small molecule, the TMB single solution (ZYMED) was added to each well. The chromogenic reaction in the solution of each well was terminated by adding sulfuric acid. Then, the developed color was assessed by measuring absorbance at 450 nm.
6RNMSC1-2_F02 described in Example 14, which has antigen-binding activity in the presence of kynurenine, and negative control GC413 were subjected to ELISA under the seven conditions described in Table 18. Meanwhile, each small molecule was appropriately prepared at the concentrations shown in Table 18 using the buffers indicated in Table 4. The antigen used was biotin-labeled hIL-6R. ELISA was carried out using the method described in Example 11.

hIL-6R [3] = target: T2, hIL-6R; test: Phage ELISA, binding to hIL-6R in the presence or absence of SC; conditions: in the presence of SC
Procedure: Culture supernatants containing phages were collected according to a conventional method (Methods Mol. Biol. (2002) 178, 133-145) from single colonies of E. coli obtained as described in (14-2). Phages purified by the method described in (2-4) were subjected to ELISA by the following procedure. A StreptaWell 96 microtiter plate (Roche) was coated overnight with 100 μl of TBS containing biotin-labeled hIL-6R. After biotin-labeled hIL-6R was removed by washing each well of the plate with TBST, the wells were blocked with 250 μl of 2% skim milk/TBS for one hour or more. 2% skim milk/TBS was removed, and then the prepared, purified phages were added to each well. The plate was allowed to stand at room temperature for one hour to allow binding of antibody-displaying phages to biotin-labeled hIL-6R in each well in the presence or absence of SC. After washing with TBST or SC/TBST, an HRP-conjugated anti-M13 antibody (Amersham Pharmacia Biotech) diluted with TBS or SC/TBS was added to each well. The plate was incubated for one hour. Following wash with TBST or SC/TBST, the TMB single solution (ZYMED) was added to each well. The chromogenic reaction in the solution of each well was terminated by adding sulfuric acid. Then, the developed color was assessed by measuring absorbance at 450 nm.

antigen-binding activity to human IL-6 receptor in the absence of ATP and adenosine (human IL6 receptor): had an antigen-binding activity
B1: 6RRLSA1-6_037: clone with antigen-binding activity to human IL-6 receptor in the absence of ATP and adenosine (antibody, V domains shown)
VH: EVQLVESGGDLVKPGGGLRLSCAASGFTFSTYTMHWVRQAPGKGLEWVSSISSRSGHRHYADSVKGRFTISRDNAKNSLYLQMNSLRAEDTAVYYCARYGKKGNRNWVFDYWGQGTLVTVSS
VL: QSALTQPPSASGSPGQTVTISCTGTSTDVGGYNYVSWYQQHPGKAPKLMIYSTSKRPSGVPDRFSGSKSGNTASLTVSGLQAEDEADYFCSTTTYAKNPVFGGGTKLTVL

antigen-binding activity to human IL-6 receptor in the absence of ATP and adenosine (human IL6 receptor): had an antigen-binding activity
B2: 6RRLSA1-6_045: clone with antigen-binding activity to human IL-6 receptor in the absence of ATP and adenosine (antibody, V domains shown)
VH: EVQLVESGGDLVKPGGGLRLSCAASGFTFSGYTMHWVRQAPGKGLEWVSSISSRSNHRSYADSVKGRFTISRDNAKNSLYLQMNSLRAEDTAVYYCARFGKRFDRNWVFDYWGQGTLVTVSS
VL: QSALTQPPSASGSPGQTVTISCTGTSTDVGTYNYVSWYQQHPGKAPKLMIYKTSKRPSGVPDRFSGSKSGNTASLTVSGLQAEDEADYFCSSRRYRRSLSFGGGTKLTVL

B3: PF1: IL-6R-binding clone prepared as a negative control; SEQ ID NOs: 48 and 49 (antibody, V domains shown)
VH: QVQLQESGPGLVKPSETLSLTCAVSGYSISDDHAWSWVRQPPGEGLEWIGYISYSGITNYNPSLKGRVTISRDTSKNQFSLKLSSVTAADTAAYYCARVLARITAMDYWGEGTLVTVSS
VL: DIQMTQSPSSLSASVGDSVTITCQASQDISSYLNWYQQKPGKAPELLIYYGSELHSGVPSRFSGSGSGTDFTFTISSLEAEDAATYYCGQGNRLPYTFGQGTKVEIE
antigen binding (negative control) [1]: not detected regardless of the ATP concentration

absorbance under condition 1 compared to condition 8 (hIL-6R [2]; condition 1 (1 mM ATP-Na)): the same
absorbance under condition 9 as compared to condition 8 (hIL-6R [2]; condition 9 (in the absence of small molecules) vs condition 8 (complete small molecule cocktail solution)): markedly lower
absorbance under other conditions (hIL-6R [2]; remaining conditions of Table 3): markedly lower
binding activity to hIL-6R in the presence of a small molecule cocktail (phage ELISA) (hIL-6R [3]): have binding activity
B4: 6RNMSC1-3_G02: antibody that binds to hIL-6R in the presence of ATP; SEQ ID NOs: 88 and 89 (antibody, listed as Homo sapiens, V domains shown)
VH: EVQLVQSGGDLVKPGGSLRLSCAASGFTFSNYAMHWVRQAPGKGLEWVAVVSYDGSNKYYADSVKGRFTISRDNSKNTLYLQMNSLRAEDTAVYYCARLVPSSGYPGRFDPWGQGTLVTVSS
VL: NIQMTQSPSSLSASVGDRVTITCRASQSISSSLNWYQQIPGKAPKLLIYAASSLQSGVPSRFSGSGSGTDFTLTISSLQPEDFASYYCQQSYSAWTFGQGTKVEIK
